From US20200399318A1, “PEPTIDE INHIBITORS OF PHOSPHOGLYCERATE MUTASE AND METHODS OF USE” (priority 2016, published 2020)
Where “and” joins values, the source holds several entries; their conditions need not be identical. Equal entries are not always repeated. Where two headings read alike, the source gives them in different places. Where a SMILES comes first, the peptide text is derived from it. Bridges are numbered along the chain shown (N, C = ends). [ ]: non-standard residue; d: D form.

Columns and labels:
B. malayi iPGM = B. malayi iPGM (Brugia malayi, UniProt Q4VWF8); assay: biochemical; conditions: for Emax: read-out: B. malayi iPGM Max Inhibition
O. volvulus iPGM = O. volvulus iPGM (Onchocerca volvulus, UniProt I6LDA6); assay: biochemical; conditions: for Emax: read-out: O. volvulus iPGM Max Inhibition
D. immitis iPGM = type: biochemical, Dirofilaria immitis
E. coli iPGM = E. coli iPGM (Escherichia coli, UniProt P37689); assay: biochemical; conditions: for Emax: read-out: E. coli iPGM Max Inhibition
[1] = target: T1, C. elegans cofactor-independent phosphoglycerate mutase (iPGM) (Caenorhabditis elegans), G5EFZ1; assay: cell-based or functional assay
T1 chain: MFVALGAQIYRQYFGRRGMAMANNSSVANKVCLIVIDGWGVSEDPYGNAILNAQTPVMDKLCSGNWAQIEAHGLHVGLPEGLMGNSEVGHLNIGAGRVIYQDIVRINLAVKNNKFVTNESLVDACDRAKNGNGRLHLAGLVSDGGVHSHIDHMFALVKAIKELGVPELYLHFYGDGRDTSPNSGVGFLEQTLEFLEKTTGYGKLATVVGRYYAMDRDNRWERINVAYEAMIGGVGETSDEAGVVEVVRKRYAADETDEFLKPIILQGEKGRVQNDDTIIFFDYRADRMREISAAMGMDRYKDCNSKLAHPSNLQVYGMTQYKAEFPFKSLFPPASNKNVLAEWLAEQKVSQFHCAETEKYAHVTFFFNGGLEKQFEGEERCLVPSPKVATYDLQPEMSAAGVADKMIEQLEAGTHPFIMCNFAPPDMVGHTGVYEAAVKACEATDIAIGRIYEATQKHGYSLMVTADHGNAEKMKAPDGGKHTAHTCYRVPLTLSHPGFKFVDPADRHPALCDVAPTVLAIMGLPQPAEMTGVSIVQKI

[2] = target: T2, E. coli cofactor-dependent phosphoglycerate mutase (dPGM) (Escherichia coli), P62707; assay: cell-based or functional assay
T2 chain: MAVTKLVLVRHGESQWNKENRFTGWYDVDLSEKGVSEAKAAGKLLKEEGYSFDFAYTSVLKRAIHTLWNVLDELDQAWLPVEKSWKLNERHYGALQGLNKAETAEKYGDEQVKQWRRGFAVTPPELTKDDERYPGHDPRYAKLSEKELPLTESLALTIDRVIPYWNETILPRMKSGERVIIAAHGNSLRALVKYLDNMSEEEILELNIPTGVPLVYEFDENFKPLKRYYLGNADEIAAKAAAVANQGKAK

[3] = target: T3, E. coli cofactor-independent phosphoglycerate mutase (iPGM) (Escherichia coli), P37689; assay: cell-based or functional assay
[4] = target: H. sapiens cofactor-dependent phosphoglycerate mutase (dPGM) (Homo sapiens), P18669; assay: cell-based or functional assay
[5] = target: T1, C. elegans cofactor-independent …; assay: cell-based or functional assay
[6] = target: T3, E. coli cofactor-independent …; assay: cell-based or functional assay; remark: listed apart in the source
[7] = target: T4, B. malayi cofactor-independent phosphoglycerate mutase (iPGM) (Brugia malayi), Q4VWF8; assay: cell-based or functional assay
T4 chain: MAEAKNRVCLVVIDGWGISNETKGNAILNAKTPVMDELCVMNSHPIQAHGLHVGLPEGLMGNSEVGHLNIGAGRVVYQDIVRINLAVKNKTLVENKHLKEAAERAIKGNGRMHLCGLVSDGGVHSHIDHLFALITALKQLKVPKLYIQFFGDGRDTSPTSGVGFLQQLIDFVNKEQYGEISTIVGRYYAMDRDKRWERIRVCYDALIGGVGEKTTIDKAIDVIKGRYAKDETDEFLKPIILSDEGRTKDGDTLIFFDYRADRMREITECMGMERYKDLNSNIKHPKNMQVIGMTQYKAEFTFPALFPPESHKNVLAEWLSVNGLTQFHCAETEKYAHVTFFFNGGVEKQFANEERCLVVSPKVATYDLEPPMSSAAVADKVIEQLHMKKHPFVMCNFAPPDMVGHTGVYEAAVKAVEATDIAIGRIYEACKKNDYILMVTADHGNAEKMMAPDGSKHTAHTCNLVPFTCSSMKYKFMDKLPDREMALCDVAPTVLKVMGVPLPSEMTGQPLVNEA

[8] = target: T5, O. volvulus cofactor-independent phosphoglycerate mutase (iPGM) (Onchocerca volvulus), I6LDA6; assay: cell-based or functional assay
T5 chain: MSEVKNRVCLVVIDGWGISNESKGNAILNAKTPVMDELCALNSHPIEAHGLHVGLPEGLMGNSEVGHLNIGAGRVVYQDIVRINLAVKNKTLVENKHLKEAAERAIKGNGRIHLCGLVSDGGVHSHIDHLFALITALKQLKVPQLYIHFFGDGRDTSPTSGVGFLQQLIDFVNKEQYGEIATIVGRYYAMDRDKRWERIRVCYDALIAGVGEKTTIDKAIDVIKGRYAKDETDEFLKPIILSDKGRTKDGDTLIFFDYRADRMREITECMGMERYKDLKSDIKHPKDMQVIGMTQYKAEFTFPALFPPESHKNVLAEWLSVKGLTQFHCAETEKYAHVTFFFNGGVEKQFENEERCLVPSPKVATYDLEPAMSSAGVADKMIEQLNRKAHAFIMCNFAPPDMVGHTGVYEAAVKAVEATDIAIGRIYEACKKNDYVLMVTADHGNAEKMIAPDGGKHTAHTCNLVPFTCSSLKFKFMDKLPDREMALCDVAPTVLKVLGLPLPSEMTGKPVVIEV

iPGM orthologues = assay: cell-based or functional assay
[9] = target: T5, O. volvulus cofactor-independent …; assay: cell-based or functional assay
[10] = target: T4, B. malayi cofactor-independent …; assay: cell-based or functional assay
[11] = target: T5, O. volvulus cofactor-independent …; assay: cell-based or functional assay
[12] = target: T1, C. elegans cofactor-independent …; assay: quadratic (stoichiometric binding) model fitted to concentration response curves of the coupled bioluminescent enzyme assay at several C. elegans iPGM concentrations (FIG. 10B)

Sequence of E. coli iPGM (P37689 whole entry, looked up): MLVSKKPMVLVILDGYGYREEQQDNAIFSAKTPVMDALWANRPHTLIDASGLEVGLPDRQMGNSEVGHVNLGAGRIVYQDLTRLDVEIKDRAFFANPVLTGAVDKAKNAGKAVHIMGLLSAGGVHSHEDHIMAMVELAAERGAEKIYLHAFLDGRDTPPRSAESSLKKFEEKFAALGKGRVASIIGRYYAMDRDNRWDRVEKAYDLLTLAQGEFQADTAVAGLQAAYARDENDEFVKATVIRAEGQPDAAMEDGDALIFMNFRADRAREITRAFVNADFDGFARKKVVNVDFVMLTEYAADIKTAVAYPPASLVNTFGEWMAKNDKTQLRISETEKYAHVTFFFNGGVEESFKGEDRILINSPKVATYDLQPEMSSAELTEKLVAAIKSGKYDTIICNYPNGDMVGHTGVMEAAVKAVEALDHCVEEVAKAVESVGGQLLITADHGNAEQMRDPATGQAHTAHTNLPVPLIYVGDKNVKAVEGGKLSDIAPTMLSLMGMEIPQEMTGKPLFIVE

CC(C)[C@@H]1NC(=O)[C@H](C)NC(=O)[C@@H](Cc2ccc(O)cc2)NC(=O)CSC[C@@H](C(=O)N[C@@H](CCCNC(=N)N)C(=O)N[C@H](C(=O)N[C@@H](CS)C(=O)NCC(N)=O)[C@@H](C)O)NC(=O)[C@H](CC(N)=O)NC(=O)[C@@H]2CCCN2C(=O)[C@H](Cc2c[nH]c3ccccc23)NC1=O [Bm-7] ({CH2CO}-[dY]AVWPNCRTCG-NH2; thioether N-7)
pIC50 B. malayi iPGM (B. malayi iPGM): 5.28
Emax (B. malayi iPGM): 74 ± 10.1%
O. volvulus iPGM PIC50, M (O. volvulus iPGM): 5.37 ± 0.52 M
Emax (O. volvulus iPGM): 78 ± 19.9%
D. immitis iPGM Max Inhibition (D. immitis iPGM): −83.1 ± 9.7
E. coli iPGM PIC50, M (E. coli iPGM): 5.12 ± 0.09 M
Emax (E. coli iPGM): 69.7 ± 12.3%

CC(C)C[C@@H]1NC(=O)[C@@H](Cc2ccc(O)cc2)NC(=O)CSC[C@@H](C(=O)N[C@@H](CC(N)=O)C(=O)N[C@H](C(=O)N[C@@H](CS)C(N)=O)[C@@H](C)O)NC(=O)[C@H](CC(N)=O)NC(=O)[C@@H]2CCCN2C(=O)[C@H](Cc2c[nH]c3ccccc23)NC(=O)[C@H](CCC(=O)O)NC1=O [Bm-4a] ({CH2CO}-[dY]LEWPNCNTC-NH2; thioether N-7)
B. malayi iPGM PIC50, M (B. malayi iPGM): 6.31 ± 0.29 M
Emax (B. malayi iPGM): 88 ± 0.4%
O. volvulus iPGM PIC50, M (O. volvulus iPGM): 6.14 ± 0.62 M
Emax (O. volvulus iPGM): 87.8 ± 4.1%
D. immitis iPGM Max Inhibition (D. immitis iPGM): −90.5 ± 1.5
E. coli iPGM PIC50, M (E. coli iPGM): 5.58 ± 0.19 M
Emax (E. coli iPGM): 78.3 ± 3.4%

YDYPGDYCYLY (modifications not checked) [Ce-2d]
Max Inhibition [1]: -103
Max Inhibition (* iPGM 500 pM) [1]: -100
pEC50 (GEMBE) [1]: 8.49 pEC50
pIC50 [1]: 8.56 pIC50 (M)
pIC50 (* iPGM 500 pM) [1]: 9.03 pIC50 (M)
Max Inhibition [2]: -6.3
Max Inhibition (* series) [2]: 2.3
Max Inhibition [3]: -102
pEC50 (GEMBE) [3]: 8.5 pEC50
pIC50 [3]: 8.71 pIC50 (M)
Max Inhibition [4]: -1.2
Max Inhibition (* series) [4]: 7.9
IC50 [5]: 3.9 nM and 3.88 nM
pIC50 [5]: 8.41 pIC50
IC50 [6]: 0.77 nM
pIC50 [6]: 9.12 pIC50

YDYPGDHCYLYGTCG (modifications not checked) [Ce-1 (ipglycermide A)]
Max Inhibition [7]: -94
pIC50 [7]: 7.92 pIC50 (M)
Max Inhibition [1]: -95.8
pIC50 [1]: 8.4 pIC50 (M)
Max Inhibition [2]: 5
Max Inhibition [3]: -96.5
pIC50 [3]: 8.38 pIC50 (M)
Max Inhibition [4]: 4
Max Inhibition [8]: -95.4
pIC50 [8]: 7.61 pIC50 (M)
inhibitory activity (endpoint profiling assays) (iPGM orthologues): 2 to 20 nM
pIC50 [9]: 7.62 pIC50

YDYPGDYCYLYGTCG (modifications not checked) [Ce-2 (ipglycermide B)]
Max Inhibition [7]: -98.8
pEC50 (GEMBE) [7]: 8.37 pEC50
pIC50 [7]: 8.27 pIC50 (M)
Max Inhibition [1]: -100
Max Inhibition (* iPGM 500 pM) [1]: -101
pEC50 (GEMBE) [1]: 8.36 pEC50
pIC50 [1]: 8.65 pIC50 (M)
pIC50 (* iPGM 500 pM) [1]: 9.6 pIC50 (M)
Max Inhibition [2]: -5.9
Max Inhibition (* series) [2]: 2.7
Max Inhibition [3]: -102
fold enhancement in affinity against linear Ce-L2 (from IC50s) [3]: 2000 fold
pEC50 (GEMBE) [3]: 8.49 pEC50
pIC50 [3]: 8.78 pIC50 (M)
Max Inhibition [4]: -0.3
Max Inhibition (* series) [4]: 1.9
Max Inhibition [8]: -98.2
fold enhancement in affinity against linear Ce-L2 (from IC50s) [8]: 10000 fold
pIC50 [8]: 7.72 pIC50 (M)
inhibitory activity (endpoint profiling assays) (iPGM orthologues): 2 to 20 nM
IC50 [10]: 17 nM and 16.8 nM
pIC50 [10]: 7.78 pIC50
IC50 [5]: 2.3 nM and 2.34 nM
pIC50 [5]: 8.63 pIC50
IC50 [6]: 0.23 nM
pIC50 [6]: 9.64 pIC50
IC50 [11]: 23 nM and 23.5 nM
pIC50 [11]: 7.63 pIC50
Kd [12]: 0.073 nM
